Measured values as given in IntAct's records for PubMed 19876371.

B1: Glucose-1-phosphate adenylyltransferase large subunit 1 (Solanum tuberosum (Potato)), Q00081 (parent)
chain: NKIKPGVAYSVITTENDTQTVFVDMPRLERRRANPKDVAAVILGGGEGTKLFPLTSRTATPAVPVGGCYRLIDIPMSNCINSAINKIFVLTQYNSAPLNRHIARTYFGNGVSFGDGFVEVLAATQTPGEAGKKWFQGTADAVRKFIWVFEDAKNKNIENIVVLSGDHLYRMDYMELVQNHIDRNADITLSCAPAEDSRASDFGLVKIDSRGRVVQFAEKPKGFDLKAMQVDTTLVGLSPQDAKKSPYIASMGVYVFKTDVLLKLLKWSYPTSNDFGSEIIPAAIDDYNVQAYIFKDYWEDIGTIKSFYNASLALTQEFPEFQFYDPKTPFYTSPRFLPPTKIDNCKIKDAIISHGCFLRDCSVEHSIVGERSRLDCGVELKDTFMMGADYYQTESEIASLLAEGKVPIGIGENTKIRKCIIDKNAKIGKNVSIINKDGVQEADRPEEGFYIRSGIIIILEKATIRDGTVI
partner: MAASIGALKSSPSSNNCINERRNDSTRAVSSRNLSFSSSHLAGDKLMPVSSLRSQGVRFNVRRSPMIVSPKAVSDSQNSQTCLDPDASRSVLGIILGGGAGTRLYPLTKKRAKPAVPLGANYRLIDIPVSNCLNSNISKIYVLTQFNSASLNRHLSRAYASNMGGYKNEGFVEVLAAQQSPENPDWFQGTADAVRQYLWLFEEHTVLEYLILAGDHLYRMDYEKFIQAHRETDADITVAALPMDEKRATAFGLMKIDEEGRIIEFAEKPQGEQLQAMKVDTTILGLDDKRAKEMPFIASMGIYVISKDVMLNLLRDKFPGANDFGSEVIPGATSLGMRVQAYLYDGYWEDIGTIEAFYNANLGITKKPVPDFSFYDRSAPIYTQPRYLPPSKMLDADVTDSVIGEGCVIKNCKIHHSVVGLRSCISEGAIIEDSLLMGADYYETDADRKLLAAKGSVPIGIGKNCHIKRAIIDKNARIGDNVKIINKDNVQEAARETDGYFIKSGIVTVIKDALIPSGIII

Variants of: B1
Conditions: with glgs_soltu glgs

effect of a mutation on the interaction	Variant
disrupting interaction	I351A;I352A
disrupting interaction	I342A
disrupting interaction	I347A
disrupting interaction	P339A
disrupting interaction	R100A
